{"source": "paper PMC10308904", "about": "“The Cytomegalovirus M35 Protein Directly Binds to the Interferon-β Enhancer and Modulates Transcription of Ifnb1 and Other IRF3-Driven Genes”", "key": {"[1]": {"biological_target": "NStr-M35_S, short M35 (aa 2 to 452) with N-terminal Twin-Strep tag and TEV site (murine cytomegalovirus (MCMV))", "test": "SEC-MALS; 100 μg protein on Superdex 200 Increase 10/300 in 50 mM Tris pH 7.4, 10% glycerol, 250 mM NaCl, 1 mM DTT"}, "M35_S [2]": {"biological_target": "T1, M35_S (murine cytomegalovirus (MCMV) strain …, UniProt D3XDM4 2-452)", "T1 sequence": "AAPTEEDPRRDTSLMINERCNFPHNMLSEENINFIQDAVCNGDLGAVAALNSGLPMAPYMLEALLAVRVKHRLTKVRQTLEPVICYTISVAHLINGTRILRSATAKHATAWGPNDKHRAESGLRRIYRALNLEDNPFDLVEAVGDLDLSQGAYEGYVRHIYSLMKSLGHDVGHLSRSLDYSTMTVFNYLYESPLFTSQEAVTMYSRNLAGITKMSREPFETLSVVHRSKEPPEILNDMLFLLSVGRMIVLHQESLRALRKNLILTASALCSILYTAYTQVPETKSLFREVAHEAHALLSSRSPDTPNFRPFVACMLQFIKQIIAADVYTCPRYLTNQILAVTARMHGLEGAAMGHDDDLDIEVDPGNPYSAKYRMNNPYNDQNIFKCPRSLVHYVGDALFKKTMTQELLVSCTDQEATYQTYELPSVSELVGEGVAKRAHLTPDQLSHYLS", "test": "EMSA", "conditions": "protein: recombinant; tags: N-terminal Twin-Strep tag removed by TEV (GS remnant likely); chain copies: 2; label: 5'-biotin on both strands; 5' overhang 1 nt each end, 56 bp"}, "M35_S [3]": {"biological_target": "T1, M35_S", "test": "EMSA; 1 uM M35_S", "conditions": "protein: recombinant; tags: N-terminal Twin-Strep tag removed by TEV (GS remnant likely); chain copies: 2; label: 5'-biotin on both strands; 5' overhang 1 nt each end, 56 bp"}, "M35_S [4]": {"biological_target": "T1, M35_S", "test": "EMSA; Hill coefficient 2.775", "conditions": "protein: recombinant; tags: N-terminal Twin-Strep tag removed by TEV (GS remnant likely); chain copies: 2; label: 5'-biotin on both strands; 5' overhang 1 nt each end, 56 bp"}, "M35_S [5]": {"biological_target": "T1, M35_S", "test": "EMSA; 0.1-10 uM M35_S; second complex at 10 uM", "conditions": "protein: recombinant; tags: N-terminal Twin-Strep tag removed by TEV (GS remnant likely); chain copies: 2; label: 5'-biotin on both strands; 5' overhang 1 nt each end, 56 bp"}}}
{"molecule": "NStr-M35_S, short M35 (aa 2 to 452) with N-terminal Twin-Strep tag and TEV site (domain or fragment)", "values": [{"measurement": "stoichiometry N", "setting": "[1]", "result": 2}]}
{"molecule": "Bio-scrambled (ScrHIFNb) (dsDNA) DNA 1: ATAAGAGAACTAAGCGGAATAAGTAAGAGATGATCGGATTAGTCGCTAAGAATGAGA DNA 2: TTCTCATTCTTAGCGACTAATCCGATCATCTCTTACTTATTCCGCTTAGTTCTCTTA", "values": [{"measurement": "binding result", "setting": "M35_S [2]", "result": "no binding"}]}
{"molecule": "Bio-hIFNb 1-38 (dsDNA) DNA 1: TAAATGACATAGGAAAACTGAAAGGGAGAAGTGAAAGTGACATGCTACGGAATGAAT DNA 2: AATTCATTCCGTAGCATGTCACTTTCACTTCTCCCTTTCAGTTTTCCTATGTCATTT", "values": [{"measurement": "binding result", "setting": "M35_S [3]", "result": "binds"}]}
{"molecule": "Bio-hIFNb 15-38 (dsDNA) DNA 1: ATATAAGACGGAATAAACTGAAAGGGAGAAGTGAAAGTGACATGCTACGGAATGAAT DNA 2: AATTCATTCCGTAGCATGTCACTTTCACTTCTCCCTTTCAGTTTATTCCGTCTTATA", "values": [{"measurement": "binding result", "setting": "M35_S [3]", "result": "binds"}]}
{"molecule": "Bio-mIFNb (murine IFN-b enhancer) (dsDNA) DNA 1: AAAATGACAGAGGAAAACTGAAAGGGAGAACTGAAAGTGGGAAATTCCTCTGAGGCA DNA 2: CTGCCTCAGAGGAATTTCCCACTTTCAGTTCTCCCTTTCAGTTTTCCTCTGTCATTT", "values": [{"measurement": "Kd", "setting": "M35_S [4]", "result": 2060, "unit": "nM"}]}
{"molecule": "Bio-hIFNb (human IFN-b enhancer) (dsDNA) DNA 1: TAAATGACATAGGAAAACTGAAAGGGAGAAGTGAAAGTGGGAAATTCCTCTGAATAG DNA 2: ACTATTCAGAGGAATTTCCCACTTTCACTTCTCCCTTTCAGTTTTCCTATGTCATTT", "values": [{"measurement": "binding result", "setting": "M35_S [5]", "result": "binds"}]}
